Reference: patent US8633026B2, “Cytokine induction of selectin ligands on cells” (priority 2006, dated 2014)

B1: G-CSF: recombinant human granulocyte colony stimulating factor (Amgen), cytokine (protein, UniProt P09919 31-207, looked up)
Granulocyte …: TPLGPASSLPQSFLLKCLEQVRKIQGDGAALQEKLVSECATYKLCHPEELVLLGHSLGIPWAPLSSCPSQALQLAGCLSQLHSGLFLYQGLLQALEGISPELGPTLDTLQLDVADFATTIWQQMEELGMAPALQPTQGAMPAFASAFQRRAGGVLVASHLQSFLEVSYRVLRHLAQP

Experiments:
CD15 = CD15 expression by flow cytometry after G-CSF treatment with or without DANA; type: cell-based, human; conditions: for expression of CD15: 10 ng/ml G-CSF, 72 hr
Procedure: Bone marrow cells were treated with 10 ng/mL of G-CSF for 5 days in the presence or absence of 100 mM DANA and expression of CD15 was analyzed by flow cytometry.
(§1) Aliquots of ˜2-5×10^5 cells were washed with PBS, 2% FBS and incubated with primary mAbs. Subsequently, the cells were washed and incubated with species and isotype matched FITC- or PE-labeled polyclonal antibodies. Following this incubation, the cells were washed and FITC or PE fluorescence of cells was determined using a Cytomics FC 500 MPL flow cytometer (Beckman Coulter Inc., Fullerton, Calif.).
(§2) Freshly isolated BM cells were separated into early immature (Band 1), late immature (Band 2) and mature (Band 3) myeloid fractions.

L-selectin = assay: Flow cytometry of L-selectin on G-CSF-treated BM cells; type: cell-based, human; conditions: in vitro, 10 ng/ml G-CSF, 72 hr
Procedure: as §1

endothelial E-selectin = assay: Parallel plate flow chamber adhesion of G-CSF-treated Band 2 cells on stimulated HUVEC; type: cell-based, human; conditions: 72 hr G-CSF, 1.5 dyne/cm^2, IL-1β-stimulated HUVEC
From the text: FIGS. 12A-B illustrates G-CSF treatment enhances the capability of human BM cells to adhere to endothelial E-selectin under physiologic flow conditions. HUVEC were stimulated with IL-1β for 4-6 hrs. Subsequently, untreated or 72 hr. G-CSF-treated Band 2 cells were perfused over HUVEC at 1.5 dyne/cm^2. In certain instances, stimulated HUVEC were pretreated with a mAb to E-selectin prior to use in adhesion assays. […]
(§3) A tissue culture dish containing confluent HUVEC monolayer or CHO cells was loaded into a parallel plate flow chamber (Glycotech; Gaithersburg, Md.). […] Primary tethering^49 was determined by quantifying the number of ML or NL that attached (i.e., interacted) from the free stream directly onto HUVEC monolayer or CHO cells during the first 2 minutes of flow. Secondary attachments (i.e., flowing leukocytes interacting with an already adherent leukocyte on HUVEC monolayer or CHO cells) or leukocytes that rolled into the field of observation from the upstream region were not counted. Average rolling velocity, a quantitative measure of selectin binding strength, was computed (using Scion Image) as the displacement by the centroid of the cell divided by the time interval of observation, 5 sec.

[1] = tested on: ST3GalIV, FucT-IV and FucT-VII; assay: RT-PCR of glycosyltransferases in G-CSF-treated Band 2 BM cells; type: cell-based; conditions: immature human BM cells (Band 2), 10 ng/ml G-CSF, 72 hr
From the text: ID NO:1) and antisense [NT] NO:2); FucT-VII, sense [NT] ID NO:3) and antisense [NT] ID NO:4); FucT-IV, sense […] NO:5) and antisense […] NO:6); GAPDH sense [NT] ID NO:8) and antisense [NT] ID NO:9).

Fuct-IX = assay: FucT-IX expression after in vitro G-CSF treatment; type: cell-based, human; conditions: normal progenitors and mobilized peripheral blood, 10 ng/ml G-CSF, 72 hr
From the text: Lane 1 are normal cells isolated from bone marrow from healthy donor. Lane 2 are G-CSF treated normal progenitors isolated from bone marrow from healthy donor. Lane 3 are untreated cells isolated from G-CSF mobilized blood. Lane 4 are G-CSF treated cells isolated from G-CSF mobilized blood.
CD15 plays a role in innate immunity in priming dendritic cells. Moreover, FTIX fucosylates internal lactosamine units yielding the VIM-2 epitope. While, the VIM-2 is not sLex, but it consists of a terminal sialic acid with an “internal fucosylation” that can function as an E-selectin ligand

[2] = tested on: Hcell and HECA-452-reactive ˜65 kDa glycoprotein on human BM cells; assay: In vitro G-CSF treatment of human BM cells, HECA-452 and E-Ig Western blots; type: cell-based
Procedure: Normal human bone marrow (BM) cells were isolated from human BM harvest material (Massachusetts General Hospital, Boston, Mass.). Red cells were separated using dextran sedimentation method. The leukocyte-rich supernatant was subjected to a two-step discontinuous Percoll (Amersham Pharmacia Biotech; Piscataway, N.J.) density gradient centrifugation (1.065 g/ml and 1.080 g/ml; 1000 g for 20 min at 4° C.). […] The cells with least density found at the upper band (“Band 1”) contained early immature cells (myeloblasts and promyelocytes), “Band 2” contained late immature cells (primarily myelocytes and metamyelocytes), and “Band 3” contained the most mature leukocytes (predominantly band and segmented neutrophils) as well as some contaminating red cells, which were subsequently removed by hypotonic lysis. The cells in different bands were collected, washed and used for further studies. In some instances, BM mononuclear cells (BM-MNC) were isolated by Ficoll-Hypaque density gradient centrifugation. CD34+/lineage—subpopulation was isolated from BM-MNC using a negative cell selection StemSep™ human progenitor enrichment cocktail (Stem Cell Technologies Inc.); CD34+ cells were then further isolated by positive selection using anti-CD34 immunomagnetic beads (Miltenyi Biotech.), routinely resulting in populations of >98% CD34+ cells.
Membrane proteins of purified ML-M, ML-G, PMN, or PBMC were isolated as described previously^28,39. Membrane protein suspensions were aliquoted and stored at −20° C. For SDS-PAGE and Western blotting, membrane preparations were diluted in reducing sample buffer, boiled and then separated on 4-20% or 7.5% Criterion Tris-HCl SDS-PAGE gels (Bio-Rad Laboratories). Resolved membrane proteins were transferred to Sequi-blot polyvinylidene diflouride (PVDF) membrane (Bio-Rad Laboratories) and blocked with heat inactivated FBS. Blots were incubated with primary antibodies or E-Ig (each at 1 μg/ml). Appropriate isotype control immunoblots (each at 1 μg/ml) were performed in parallel to evaluate nonspecific binding to protein bands. […]

[3] = tested on: E-selectin ligands on circulating leukocytes; assay: Clinical collections of leukocytes mobilized by G-CSF administration (ML); type: in vivo, human
From the text: Materials: G-CSF mobilized peripheral blood (MPB) was obtained from pheresis products of donors for clinical HSCT at Brigham and Women's Hospital/Dana Farber Cancer Institute (Boston, Mass.). G-CSF MPB leukocytes (ML) were isolated from buffy coat of dextran sedimentated whole blood, followed by hypotonic lysis to remove contaminating red cells. Mononuclear fraction of these cells (ML-M) was isolated by Ficoll-Hypaque (1.077 g/ml; Sigma Aldrich) density gradient centrifugation. Native (unmobilized) peripheral blood was obtained from consenting healthy volunteers, and NL (buffy coat) were isolated using dextran sedimentation as for ML. Peripheral blood mononuclear cells (PBMC) were isolated by Ficoll-Hypaque density gradient centrifugation. Polymorphonuclear leukocytes (PMN) were isolated by dextran sedimentation followed by collecting the cell pellet after Ficoll-Hypaque density gradient centrifugation. Contaminated red cells were removed by hypotonic lysis.
as §3, with “sec. […]” for “sec.”
Aliquots of ˜2-5×10^5 cells were washed with PBS, 2% FBS and incubated with primary mAbs. […] Following this incubation, the cells were washed and FITC or PE fluorescence of cells was determined using a Cytomics FC 500 MPL flow cytometer (Beckman Coulter Inc., Fullerton, Calif.).

sialidase = assay: Sialidase expression/activity after G-CSF treatment of human myeloid cells; type: cell-based
From the text: as §2

[4] = multiple clinical ML collections, G-CSF administration

Molecule	G-CSF-induced increase in CD15 under sialidase inhibition (CD15; bone marrow cells, 10 ng/mL G-CSF for 5 days, 100 mM DANA, flow cytometry)	G-CSF-induced increase of CD15 under sialidase inhibition (CD15; late mature bone marrow and leukocytes, G-CSF-treated)	L-selectin expression on G-CSF treated cells relative to untreated cells (L-selectin)	E-selectin binding (primary tethering, rolling velocity on stimulated HUVEC) (endothelial E-selectin)	expression of CD15 (CD15; early immature bone marrow)	expression of CD15 (CD15; late mature bone marrow and leukocytes)	expression levels of ST3GalIV, FucT-IV and FucT-VII [1]	Fuct-IX expression (Fuct-IX)	expression of Hcell and the HECA-452-reactive ˜65 kDa glycoprotein ([2]; 10 ng/ml G-CSF, 72 hr, 37° C., predominantly immature Band 1 and Band 2 human BM cells)	HCELL induction on lymphocytes ([2]; lymphocytes in BM or in blood)	inducing HCELL expression among mature myeloid BM cells ([2]; mature myeloid BM cells)	surface L-selectin expression on circulating leukocytes ([3]; following G-CSF administration, flow cytometry)	E-selectin ligand activity of circulating leukocytes [3, 4]	expression of the E-selectin ligands HCELL and the HECA-452-reactive ˜65 kDa glycoprotein [3, 4]	expression of sialidase (sialidase; bone marrow and leukocytes, 10 ng/ml G-CSF, 72 hr)	sialidase activity (sialidase; human myeloid bone marrow cells, 10 ng/mL G-CSF, 24 hours, 4-MU-NANA substrate)
CC(=O)N[C@H]1[C@H]([C@H](O)[C@H](O)CO)OC(C(=O)O)=C[C@@H]1O [DANA, 2-deoxy-2,3-dehydro-N-acetyl-neuraminic acid, reference compound]	blunts G-CSF-induced increase in CD15	could be prevented	–	–	–	–	–	–	–	–	–	–	–	–	–	–
B1	–	–	down-regulation of L-selectin expression	enhanced E-selectin binding	did not has an effect	increased expression of CD15	increases in expression levels	increases Fuct-IX expression	up-regulation in expression	not induced	only a variable effect	marked decrease in surface L-selectin expression	uniformly increased E-selectin ligand activity	upregulated the expression	increase expression of sialidase	increases sialidase activity
